The text below walks through data of PMC3334968, “Development of a Tetrameric Streptavidin Mutein with Reversible Biotin Binding Capability: Engineering a Mobile Loop as an Exit Door for Biotin” (PLoS ONE, 2012).

This series concerns the molecule itself. The series can be described thus: SDS-PAGE of unboiled samples; oligomeric state in SDS-PAGE, samples not boiled, without biotin, with or without 0.7 M β-mercaptoethanol.

B1: 8-aa-loop-H127C mutein (streptavidin) (natural protein, UniProt P22629 25-183, looked up)
chain: DPSKDSKAQVSAAEAGITGTWYNQLGSTFIVTAGADGALTGTYESAVGNAESRYVLTGRYDSAPATDGSGTALGWTVAWKNNYRNAHSATTWSGQYVGGAEARINTQWLLTSGDSSNGSDGSTLVGCDTFTKVKPSAASIDAAKKAGVNNGNPLDAVQQ
modifications: disulfide bond between the Cys-127 residues of adjacent subunits
notes: streptavidin; loop7-8 (residues 114-121) replaced and H127C added; SDS-PAGE was done without biotin; also called MH127C; 8-aa-loop-H127 mutein; source: B. subtilis WB800, secreted, purified from culture supernatant (biotin-agarose)
In general, stoichiometry N refers to a count of units in the complex or per binding partner. As to B1, the “stoichiometry N” value amounted to 4.
